# Test results taken from patent publication US6884600 (MEDICAL RESEARCH COUNCIL LONDON, dated 2005).
# B1: rabbit GM-(G63-T93) synthetic peptide (peptide)
# peptide: GRRVSFADNFGFNLVSVKEFDTWELPSVSTT
# B2: M110-(M1-A150), released from GST with thrombin (other)
# chain: GSPGMKMADAKQKRNEQLKRWIGSETDLEPPVVKRQKTKVKFDDGAVFLAACSSGDTDEVLKLLHRGADINYANVDGLTALHQACIDDNVDMVKFLVENGANINQPDNEGWIPLHAAASCGYLDIAEFLIGQGAHVGAVNSEGDTPLDIAEEEA
# B3: M110-(M1-F38) synthetic peptide (peptide)
# peptide: MKMADAKQKRNEQLKRWIGSETDLEPPVVKRQKTKVKF
# B4: M110[M1-K35] synthetic peptide (peptide)
# peptide: MKMADAKQKRNEQLKRWIGSETDLEPPVVKRQKTK
# B5: M110-(R714-I1004), C-terminal 291 residues of the chicken gizzard M110 subunit (other)
# chain: RSTRTREQENEEKEKEEKEKQDKEKQEEKKESETKDDDYRQRYSRTVEEPYHRYRPTSTSTSTSSTSSLSTSTSSLSSSSQLNRPNSLIGITSAYSRSGTKESEREGGKKEEEKEEDKSQPKSIRERRRPREKRRSTGVSFWTQDSDENEQEHQSDSEEGTNKKETQSDSLSRYDTGSLSVSSGDRYDSAQGRSGSQSYLEDRKPYCSRLEKEDSTDFKKLYEQILAENEKLKAQLHDTNMELTDLKLQLEKTTQRQERFADRSLLEMEKRVSGKSQYLLGGKKSSRKKDI
# notes: Expressed from pT7-7
# B6: GST-M110-(M377-K976), undegraded (other)
# chain: MASVTNAHTASTQAAPAAVTTPTLSSNQGTPTSPVKKFPTSTTKISPKEEERKDESPASWRLGLRKTGSYGALAEITASKEAQKEKDTAGVIRSASSPRLSSSLDNKEKEKDNKGTRLAYVAPTIPRRLGSTSDIEEKENRESSNLRTSSSYTRRKWEDDLKKNSSINEGSTYHRSTSNRLWAEDSTEKEKDSAPTAATILVAPTVVSAAASSTTALTTTTAGTLSSTSEVRERRRSYLTPVRDEESESQRKARSRQARQSRRSTQGVTLTDLQEAEKTIGRSRSTRTREQENEEKDKEEKEKQDKEKQEEKKESEVSREDEYKQKYSRTYDETYARYRPVSTSSSSTPSSSSLSTLGSSLYASSQLNRPNSLVGITSAYSRGLTKDNEREGEKKEEEKEGEDKSQPKSIRERRRPREKRRSTGVSFWTQDSDENEQERQSDTEDGSSKRDTQTDSVSRYDSSSTSSSDRYDSLLGRSASYSYLEERKPYGSRLEKDDSTDFKKLYEQILAENEKLKAQLHDTNMELTDLKLQLEKATQRQERFADRSLLEMEKRERRALERRISEMEEELKMLPDLKADNQRLKDENGALIRVISKLSK
# notes: also called C-terminal 600 residues of the M110 subunit from rat aorta; not shown: glutathione-S-transferase of vector pGEX-KG with the vector linker
# B7: GST-M21 (other, not shown: a dimerising Fc or GST; small tags and cut ends)
# chain: MSSLFTRSKEYTRSRKSQSDSPPSSPSPIAKTLRHERLSRLEAATTPATSDSYSDRASSRSSAYSRRENRLAALSSRAEEESNRDYKKLYESALSENQKLKSKLQEAQLELADIKSKLEKAAQQKHEKTSDRSSMLEMEKREKRALERKLSEMEEEMKILTELKSDNQRLKDENGALIRVISKLSK
# notes: also called undegraded GST-M21 (47 kDa)
# B8: GM-(G63-K80) synthetic peptide (peptide)
# peptide: GRRVSFADNFGFNLVSVK
# notes: also called peptide 63-80 of GM
# B9: GM-(G63-N75) synthetic peptide (peptide)
# peptide: GRRVSFADNFGFN
# notes: 13-residue peptide co-crystallised with PP1γ1; also called GM[63-75]; GM peptide
# B10: M110 subunit of chicken gizzard PP1M, full length (other)
# chain: MKMADAKQKRNEQLKRWIGSETDLEPPVVKRKKTKVKFDDGAVFLAACSSGDTEEVLRLLERGADINYANVDGLTALHQACIDDNVDMVKFLVENGANINQPDNEGWIPLHAAASCGYLDIAEYLISQGAHVGAVNSEGDTPLDIAEEEAMEELLQNEVNRQGVDIEAARKEEERIMLRDARQWLNSGHINDVRHAKSGGTALHVAAAKGYTEVLKLLIQARYDVNIKDYDGWTPLHAAAHWGKEEACRILVENLCDMEAVNKVGQTAFDVADEDILGYLEELQKKQNLLHSEKREKKSPLIESTANLDNNQTQKTFKNKETLIMEQEKNASSIESLEHEKADEEEEGKKDESSCSSEEEEDDDSESEAETDKAKTLANANTTSTQSASMTAPSVAGGQGTPTSPLKKFPTSTTKVSPKEEERKDESPASWRLGLRKTGSYGALAEITASKEAQKEKDSAGVIRSASSPRLSSSLDNKEKEKDGKGTRLAYVAPTIPRRLASTSDIDEKENRDSSASSIRSGSSYARRKWEEDVKKNSLNEGPTSLNTSYQRSGSFGRRQDDLVSSNVPSTASTVTSSAGLQKTLPASANTTTKSTTGSTSAGVQSSTSNRLWAEDSTEKEKDSVPTAVTVPVAPSVVNAAATTTAMTTATSGTVSSTSEVRERRRSYLTPVRDEESESQRKARSRQARQSRRSTQGVTLTDLQEAEKTIGRSRSTRTREQENEEKEKEEKEKQDKEKQEEKKESETKDDDYRQRYSRTVEEPYHRYRPTSTSTSTSSTSSLSTSTSSLSSSSQLNRPNSLIGITSAYSRSGTKESEREGGKKEEEKEEDKSQPKSIRERRRPREKRRSTGVSFWTQDSDENEQEHQSDSEEGTNKKETQSDSLSRYDTGSLSVSSGDRYDSAQGRSGSQSYLEDRKPYCSRLEKEDSTDFKKLYEQILAENEKLKAQLHDTNMELTDLKLQLEKTTQRQERFADRSLLEMEKRVSGKSQYLLGGKKSSRKKDI
# notes: Native subunit, met as the M110 band of blotted PP1M or inside PP1M; also called 110 kDa subunit; Ch1
# B11: GST-M110-(M1-S477) (other)
# chain: MKMADAKQKRNEQLKRWIGSETDLEPPVVKRQKTKVKFDDGAVFLAACSSGDTDEVLKLLHRGADINYANVDGLTALHQACIDDNVDMVKFLVENGANINQPDNEGWIPLHAAASCGYLDIAEFLIGQGAHVGAVNSEGDTPLDIAEEEAMEELLQNEVNRQGVDIEAARKEEERIMLRDARQWLNSGHISDVRHAKSGGTALHVAAAKGYTEVLKLLIQAGYDVNIKDYDGWTPLHAAAHWGKEEACRILVDNLCDMETVNKVGQTAFDVADEDILGYLEELQKKQNLLHSEKRDKKSPLIESTANMENNQPQKTFKNKETLIIEPEKNASRIESLEQEKADEEEEGKKDESSCSSEEDEEDDSESEAETDKTKPMASVTNAHTASTQAAPAAVTTPTLSSNQGTPTSPVKKFPTSTTKISPKEEERKDESPASWRLGLRKTGSYGALAEITASKEAQKEKDTAGVIRSASSPRLSSAANSISSLIHRD
# notes: not shown: glutathione-S-transferase of vector pGEX-KG with the vector linker (thrombin site)
# B12: GST-M110-(M1-E309), GST tag not cleaved (other)
# chain: MKMADAKQKRNEQLKRWIGSETDLEPPVVKRQKTKVKFDDGAVFLAACSSGDTDEVLKLLHRGADINYANVDGLTALHQACIDDNVDMVKFLVENGANINQPDNEGWIPLHAAASCGYLDIAEFLIGQGAHVGAVNSEGDTPLDIAEEEAMEELLQNEVNRQGVDIEAARKEEERIMLRDARQWLNSGHISDVRHAKSGGTALHVAAAKGYTEVLKLLIQAGYDVNIKDYDGWTPLHAAAHWGKEEACRILVDNLCDMETVNKVGQTAFDVADEDILGYLEELQKKQNLLHSEKRDKKSPLIESTANMEA
# notes: as for B11
# B13: M110-(M1-S477), released from GST with thrombin (other)
# chain: GSPGMKMADAKQKRNEQLKRWIGSETDLEPPVVKRQKTKVKFDDGAVFLAACSSGDTDEVLKLLHRGADINYANVDGLTALHQACIDDNVDMVKFLVENGANINQPDNEGWIPLHAAASCGYLDIAEFLIGQGAHVGAVNSEGDTPLDIAEEEAMEELLQNEVNRQGVDIEAARKEEERIMLRDARQWLNSGHISDVRHAKSGGTALHVAAAKGYTEVLKLLIQAGYDVNIKDYDGWTPLHAAAHWGKEEACRILVDNLCDMETVNKVGQTAFDVADEDILGYLEELQKKQNLLHSEKRDKKSPLIESTANMENNQPQKTFKNKETLIIEPEKNASRIESLEQEKADEEEEGKKDESSCSSEEDEEDDSESEAETDKTKPMASVTNAHTASTQAAPAAVTTPTLSSNQGTPTSPVKKFPTSTTKISPKEEERKDESPASWRLGLRKTGSYGALAEITASKEAQKEKDTAGVIRSASSPRLSSAANSISSLIHRD
# B14: M110-(K933-I1004), C-terminal 72 residues of the chicken gizzard M110 subunit, released from MBP with Factor Xa (other)
# chain: KLYEQILAENEKLKAQLHDTNMELTDLKLQLEKTTQRQERFADRSLLEMEKRVSGKSQYLLGGKKSSRKKDI
# notes: also called 8.5 kDa M110-(K933-I1004) fragment
# Legend:
# [1] = biological target: PP1M, myosin-associated form of PP1 from chicken gizzard (chicken, UniProt P62207 2-327); assay: cell-based or functional assay
# Sequence of PP1M, myosin-associated form of PP1 from chicken gizzard (P62207 2-327): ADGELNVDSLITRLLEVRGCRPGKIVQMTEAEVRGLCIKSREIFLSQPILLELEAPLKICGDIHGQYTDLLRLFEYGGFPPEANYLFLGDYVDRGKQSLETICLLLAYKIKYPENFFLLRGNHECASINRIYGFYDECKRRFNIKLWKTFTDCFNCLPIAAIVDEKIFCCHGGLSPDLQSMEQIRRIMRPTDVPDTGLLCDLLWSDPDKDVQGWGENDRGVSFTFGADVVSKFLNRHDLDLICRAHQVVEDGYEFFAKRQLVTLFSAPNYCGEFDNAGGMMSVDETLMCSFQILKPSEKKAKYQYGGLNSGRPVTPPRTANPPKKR
# [2] = biological target: PP1GL, glycogen-associated form of PP1 in rat hepatic glycogen-protein particles (rat); assay: cell-based or functional assay
# [3] = biological target: T1, β isoform of PP1c released from rabbit skeletal muscle PP1G (rabbit, UniProt P62143 2-327); assay: cell-based or functional assay
# T1 sequence (P62143 2-327): as the sequence (P62207 2-327) above
# [4] = biological target: T2, myosin from chicken gizzard, dephosphorylated form (chicken, UniProt P10587 2-1979; P02612 2-172; P02607 2-151); assay: summary of the co-sedimentation experiments
# T2 construct: mature; Native protein pelleted by centrifugation; 1 µM in terms of heavy chains; also called myosin dimer
# T2 sequence (P10587 2-1979, chain 1 of 3): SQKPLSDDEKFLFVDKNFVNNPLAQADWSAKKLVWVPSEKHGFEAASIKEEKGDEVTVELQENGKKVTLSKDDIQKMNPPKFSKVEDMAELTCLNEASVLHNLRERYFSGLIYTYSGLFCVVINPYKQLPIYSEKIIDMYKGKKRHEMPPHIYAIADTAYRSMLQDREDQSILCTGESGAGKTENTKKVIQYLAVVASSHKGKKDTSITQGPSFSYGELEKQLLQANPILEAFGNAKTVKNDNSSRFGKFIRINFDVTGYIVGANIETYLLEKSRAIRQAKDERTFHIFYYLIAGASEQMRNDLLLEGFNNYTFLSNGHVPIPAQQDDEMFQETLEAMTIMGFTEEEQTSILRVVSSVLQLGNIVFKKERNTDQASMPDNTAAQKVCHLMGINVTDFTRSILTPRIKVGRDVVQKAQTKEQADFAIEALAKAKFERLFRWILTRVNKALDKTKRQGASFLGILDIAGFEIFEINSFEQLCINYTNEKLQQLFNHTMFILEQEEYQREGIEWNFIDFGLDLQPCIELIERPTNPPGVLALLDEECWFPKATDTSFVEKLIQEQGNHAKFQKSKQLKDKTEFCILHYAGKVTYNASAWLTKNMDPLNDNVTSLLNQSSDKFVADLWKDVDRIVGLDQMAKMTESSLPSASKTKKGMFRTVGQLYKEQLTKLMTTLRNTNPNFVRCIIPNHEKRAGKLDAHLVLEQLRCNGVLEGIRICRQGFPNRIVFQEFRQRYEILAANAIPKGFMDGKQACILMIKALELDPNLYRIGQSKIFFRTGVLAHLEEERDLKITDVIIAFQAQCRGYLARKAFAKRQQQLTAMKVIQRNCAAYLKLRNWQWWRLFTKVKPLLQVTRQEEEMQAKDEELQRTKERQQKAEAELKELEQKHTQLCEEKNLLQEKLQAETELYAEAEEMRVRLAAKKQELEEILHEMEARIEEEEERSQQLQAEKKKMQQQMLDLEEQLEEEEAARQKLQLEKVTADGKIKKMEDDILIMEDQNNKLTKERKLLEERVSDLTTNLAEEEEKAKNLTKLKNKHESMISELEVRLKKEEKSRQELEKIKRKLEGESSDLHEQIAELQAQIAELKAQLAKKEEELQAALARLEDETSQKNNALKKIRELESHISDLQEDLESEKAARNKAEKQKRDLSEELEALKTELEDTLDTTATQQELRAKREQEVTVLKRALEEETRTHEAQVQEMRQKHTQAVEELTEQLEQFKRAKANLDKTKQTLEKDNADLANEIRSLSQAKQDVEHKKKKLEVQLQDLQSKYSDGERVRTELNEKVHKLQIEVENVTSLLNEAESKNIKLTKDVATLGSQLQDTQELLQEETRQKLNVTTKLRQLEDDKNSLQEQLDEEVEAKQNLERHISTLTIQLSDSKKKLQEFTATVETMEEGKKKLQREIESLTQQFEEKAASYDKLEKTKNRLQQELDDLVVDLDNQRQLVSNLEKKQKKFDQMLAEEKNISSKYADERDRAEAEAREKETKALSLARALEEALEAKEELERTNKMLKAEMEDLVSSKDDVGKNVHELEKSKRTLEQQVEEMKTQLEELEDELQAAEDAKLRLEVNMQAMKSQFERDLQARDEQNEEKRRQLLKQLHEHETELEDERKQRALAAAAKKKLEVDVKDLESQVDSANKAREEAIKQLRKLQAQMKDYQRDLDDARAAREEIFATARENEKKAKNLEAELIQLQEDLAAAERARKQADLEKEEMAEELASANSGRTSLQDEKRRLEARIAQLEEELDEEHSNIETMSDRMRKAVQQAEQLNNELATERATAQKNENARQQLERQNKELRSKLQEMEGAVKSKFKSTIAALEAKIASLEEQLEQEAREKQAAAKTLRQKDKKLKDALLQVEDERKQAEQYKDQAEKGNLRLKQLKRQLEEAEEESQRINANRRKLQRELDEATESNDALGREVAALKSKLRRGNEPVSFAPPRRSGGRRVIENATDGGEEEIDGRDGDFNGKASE
# T2 sequence (P02612 2-172, chain 2 of 3): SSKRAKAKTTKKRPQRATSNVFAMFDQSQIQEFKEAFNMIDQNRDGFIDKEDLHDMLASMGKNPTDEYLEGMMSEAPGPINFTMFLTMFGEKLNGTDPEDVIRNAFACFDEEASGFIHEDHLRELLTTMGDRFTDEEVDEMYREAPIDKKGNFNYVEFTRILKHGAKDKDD
# T2 sequence (P02607 2-151, chain 3 of 3): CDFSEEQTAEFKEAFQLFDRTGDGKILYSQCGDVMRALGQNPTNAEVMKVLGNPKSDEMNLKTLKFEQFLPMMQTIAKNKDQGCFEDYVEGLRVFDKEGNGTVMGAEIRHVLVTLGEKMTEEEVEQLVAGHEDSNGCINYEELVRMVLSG
# Procedure: (§1) (A); PP1_M, $M110$-(M1-S477) and GST-$M110$-(M377-K976), each at 30 nM were incubated for 15 min at 0° C. with 1 μM myosin and centrifuged. The supernatants (S), resuspended pellets (P) and the suspension before centrifugation (T, total) were electrophoresed on 12% SDS/polyacrylamide gels, transferred to nitrocellulose and immunoblotted with antibodies raised against the PP1_M holoenzyme. No protein was pelleted in the absence of myosin (not shown). The positions of the marker proteins myosin heavy chain (200 kDa), glycogen phosphorylase (97 kDa), bovine serum albumin (66 kDa), ovalbumin (43 kDa), carbonic anhydrase (29 kDa) and soybean trypsin inhibitor (20 kDa) are indicated. […] A small amount of $M110$-(R714-I1004) pelleted in the absence of myosin. […] No other protein was pelleted in the absence of myosin.
# (§2) Myosin binding assays. Myosin (0.5 mg/ml, 1 µM in terms of myosin heavy chains) in 10 mM Hepes pH 7.5, 50 mM KCl, 5 mM MgCl2, 0.1% (by vol) 2-mercaptoethanol, was mixed with PP1_M, M$21$ subunit, or fragments of the M$110$ and M$21$ subunits, at the concentrations indicated in figure legends. […] Aliquots of the supernatant, the resuspended pellet and the suspension before centrifugation were either assayed for myosin P-light chain phosphatase activity or denatured in SDS and analysed by SDS/polyacrylamide gel electrophoresis.
# [5] = biological target: T2, myosin from chicken gizzard, …; assay: co-sedimentation, 30 nM with 1 µM myosin, immunoblot
# Procedure: as §1, §2
# [6] = biological target: T2, myosin from chicken gizzard, …; assay: co-sedimentation with myosin, immunoblot
# Procedure: as §1
# (§3) Myosin binding assays. Myosin (0.5 mg/ml, 1 µM in terms of myosin heavy chains) in 10 mM Hepes pH 7.5, 50 mM KCl, 5 mM MgCl2, 0.1% (by vol) 2-mercaptoethanol, was mixed with PP1_M, M$21$ subunit, or fragments of the M$110$ and M$21$ subunits, at the concentrations indicated in figure legends. After incubation for 15 min at 0° C., the solutions were centrifuged for 2 min at 13,000×g, the supernatants removed, and the pellets washed twice in 10 mM Hepes pH 7.5, 50 mM KCl, 5 mM MgCl2, 0.1% (by vol) 2-mercaptoethanol before resuspension in 50 mM Tris-HCl pH 7.5, 0.1 mM EGTA, 0.03% (by mass) Brij 35, 0.6 M NaCl, 0.1% (by vol) 2-mercaptoethanol. Aliquots of the supernatant, the resuspended pellet and the suspension before centrifugation were either assayed for myosin P-light chain phosphatase activity or denatured in SDS and analysed by SDS/polyacrylamide gel electrophoresis.
# [7] = biological target: T1, β isoform of PP1c released from rabbit …; assay: phosphatase assays and changed crystal form of PP1c
# [8] = biological target: T2, myosin from chicken gizzard, …; assay: co-sedimentation with myosin (as PP1M lacking M21)
# Procedure: The PP1 catalytic subunit (PP1c), PP1_M, or PP1_M lacking the $M21$ subunit, $PP1_M(\Delta M21)$, each at 30 nM, were incubated for 15 min at 0° C. with 1 μM myosin and centrifuged (see Methods of Example 3). […] The results shown are the average (±S.E.M.) for three separate experiments each assayed in duplicate.
# as §3
# [9] = biological target: T2, myosin from chicken gizzard, …; assay: co-sedimentation with myosin
binder,measurement,setting,value
B1,phosphorylase phosphatase activity of PP1M at 10 µM peptide,[1],~7 fold
same,phosphorylase phosphatase activity of PP1GL,[2],6 fold
B2,"concentration needed to modify the specificity of PP1, relative to M110-(M1-E309)",[3],10 fold
B3,concentration for half maximal activation relative to M110-(M1-E309),[3],≥ 100 fold
same,maximal activation of the myosin light chain phosphatase activity of PP1c,[3],3 fold
same,phosphorylase phosphatase activity of PP1GL at 10 µM peptide,[2],3.5 fold
B4,effectiveness at activating the myosin light chain phosphatase activity of PP1c relative to M110[1-38],[3],≥ 10000 fold
B5,binding result,[4],binds
B6,binding result,[5],binds
B7,binding result,[6],binds
B8,binding result,[7],binds
B9,binding result,[7],binds
B10,binding result,[8],binds
B11,binding result,[9],no binding
B12,binding result,[9],no binding
B13,binding result,[6],no binding (tested: 30 nM with 1 µM myosin)
B14,binding result,[6],no binding (tested: 100 nM with 1 µM myosin)
